We go through two molecules from US12304939B2, “EGFR and C-met fibronectin type III domain binding molecules” (Janssen Biotech, Inc., priority 2012, dated 2025).

The subject of one test is NCI-H292 cells. Briefly: NCI-H292 growth assay. The test is classed as cell-based, human. The note with it: 120 hours, CellTiter-Glo. Here is the method: (§1) Inhibition of EGFR-dependent cell growth was assessed by measuring viability of the EGFR over-expressing human tumor cell lines, NCI-H292 and NCI-H322 (American Type Culture Collection, cat. #CRL-1848 & #CRL-5806, respectively), following
(§2) exposure to EGFR-binding FN3 domains. […] Cells were treated by addition of 5 μL/well of phosphate-buffered saline (PBS) containing a concentration range of EGFR-binding FN3 domains. Controls were treated with 5 μL/well of PBS only or 25 mM ethylenediaminetetraacetic acid in PBS. […] Viable cells were detected by addition of 75 μL/well of CellTiter-Glo® reagent (Promega), followed by mixing on a plate shaker for 2 minutes, and incubation in the dark at room temperature for a further 10 minutes. Plates were read on a SpectraMax M5 plate reader (Molecular Devices) set to luminescence mode, with a read time of 0.5 seconds/well against a blank of medium only. Data were plotted as a percentage of PBS-treated cell growth against the logarithm of FN3 domain molar concentration.
Background: ATP-based viability assays read luminescence as a measure of living cells.

In another test the target is EGFR on A431 cells (Homo sapiens, UniProt P00533). Put plainly: A431 cell binding assay. The settings on record: purified FN3 domains.
In test [1] the target is T1, recombinant EGFR extracellular domain (EGFR-Fc) (Homo sapiens, UniProt P00533).
T1 construct: purchased R&D Systems
Briefly: EGFR-Fc affinity by surface plasmon resonance (Proteon). The test is classed as binding. The note with it: SPR, 1:1 Langmuir fit; read-out: EGFR-Fc Affinity. The procedure: Select EGFR-binding FN3 domains were screened to identify those with slow off-rates (koff) in binding to EGFR-Fc on a ProteOn XPR-36 instrument (Bio-Rad) to facilitate selection of high affinity binders. Goat anti-human Fc IgG (R&D systems), at a concentration of 5 μg/mL, was directly immobilized via amine coupling (at pH 5.0) on all 6 ligand channels in horizontal orientation on the chip with a flow rate of 30 μL/min in PBS containing 0.005% Tween-20. The immobilization densities averaged about 1500 Response Units (RU) with less than 5% variation among different channels. EGFR-Fc was captured on the anti-human Fc IgG surface to a density around 600 RU in vertical ligand orientation. All tested FN3 domains were normalized to a concentration of 1 μM and tested for their binding in horizontal orientation. […] The dissociation phase was monitored for 10 minutes at a flow rate of 100 μL/min. […]
Binding affinity of selected EGFR-binding FN3 domains to recombinant EGFR extracellular domain was further characterized by surface Plasmon resonance methods using a Proteon Instrument (BioRad). […] The dissociation phase for all concentrations of each EGFR-binding FN3 domain was monitored at a flow rate of 100 μL/min for 30 minutes (for those with koff ˜10^−2 s^−1 from off-rate screening), or 1 hour (for those with koff ˜10^−3 s^−1 or slower). […]

Test [2] addresses T2, EGFR (Homo sapiens, UniProt P00533). Briefly: Phospho-EGFR assay: inhibition of EGF-stimulated EGFR phosphorylation (Tyr1173) in A431 cells. The format is cell-based. The note with it: 50 ng/mL EGF.
Test [3] concerns the target EGF binding to EGFR on A431 cells (Homo sapiens, UniProt P00533). Put plainly: A431 cell EGF competition assay. The settings on record: 30 ng/mL biotinylated EGF. Here is the method:
To better characterize the mechanism of EGFR binding, the ability of various identified FN3 domain clones to bind EGFR in an EGF-competitive manner was measured using A431 cells and run in parallel with the A431 binding assay screen. […] Biotinylated EGF (Invitrogen, cat. #E-3477) was added to each well for a final concentration of 30 ng/mL and incubated for 10 minutes at room temperature.
Bacterial lysates containing the FN3 domains were screened in the EGF competition assay described above.
Biotinylated EGF (Invitrogen, Cat #: E-3477) was added to each well to give a final concentration of 30 ng/mL and incubated for 10 minutes at room temperature.

The test system of a further test is NCI-H322 cells. Briefly: NCI-H322 growth assay. The test is classed as cell-based, human. The note with it: 120 hours, CellTiter-Glo. The procedure:
as §1, §2

For test [4], the target named is T2, EGFR. Put plainly: Inhibition of EGFR phosphorylation in NCI-H596 cells. The note with it: FIG. 5B. The test is classed as cell-based. Further details: host or cells: NCI-H292. The procedure: (§3) NCI-H292, NCI-H441, or NCI-H596 cells were plated in 96 well plates in RPMI medium containing 10% FBS. 24 hours later, medium was replaced with serum free RPMI. […] Cells were treated for 1 h with the monospecific or bispecific molecules and then stimulated with EGF, HGF, or a combination of EGF and HGF for 15 minutes at 37° C., 5% CO2. Cells were lysed with MSD Lysis Buffer and cell signaling was assessed using appropriate MSD Assay plates, according to manufacturer's instructions, as described above.

In test [5] the target is T2, EGFR. Briefly: Inhibition of EGFR phosphorylation in NCI-H292 cells. The test is classed as cell-based. On the set-up: host or cells: NCI-H292. The note with it: FIG. 5A. Here is the method: Purified EGFR-binding FN3 domains were tested for their ability to inhibit EGF-stimulated phosphorylation of EGFR in A431 cells at a single concentration. EGFR phosphorylation was monitored using the EGFR phospho(Tyr1173) kit (Meso Scale Discovery). […] Controls were treated with starvation medium only. […] One set of control wells was left un-stimulated as negative controls. Medium was completely removed, and cells were lysed with 100 μL/well of Complete Lysis Buffer (Meso Scale Discovery) for 10 minutes at room temperature with shaking, as per the manufacturer's instructions. […] Signals were detected by addition of 150 μL/well of Read Buffer (Meso Scale Discovery) and reading on a SECTOR® Imager 6000 instrument (Meso Scale Discovery) using manufacturer-installed assay-specific default settings. Percent inhibition of the EGF-stimulated positive control signal was calculated for each EGFR-binding FN3 domain.
NCI-H292, NCI-H441, or NCI-H596 cells were plated in 96 well plates in RPMI medium containing 10% FBS. […] Cells were lysed with MSD Lysis Buffer and cell signaling was assessed using appropriate MSD Assay plates, according to manufacturer's instructions, as described above.

Test [6] addresses T2, EGFR. Briefly: Inhibition of EGFR phosphorylation in NCI-H441 cells. The note with it: FIG. 5C. On the set-up: host or cells: NCI-H292. The format is cell-based. Here is the method:
as §3

B1: P54AR4-47: EGFR-binding FN3 domain, SEQ ID NO: 20 (protein)
chain: LPAPKNLVVSEVTEDSLRLSWGYNGDHFDSFLIQYQESEKVGEAINLTVPGSERSYDLTGLKPGTEYTVSIYGVHNVYKDTNMRGLPLSAEFTT
modifications: EGFR binding FN3 domain
What is called IC50 is the midpoint of a concentration-inhibition curve. High values mean weaker potency, low ones greater potency. A word on the EC50: it is the concentration giving half of the maximal effect. A lower EC50 goes with a more potent agent. With B1, the IC50 came out at 44 nM in the test on NCI-H292 cells, 295 nM with EGFR [2], 7.1 nM in [3] and 39 nM with NCI-H322 cells. For the same molecule, in the test with EGFR on A431 cells, a half-maximal response (EC50) required 8.6 nM. In addition, in test [1], the Kd is 2.51 nM.

B2: ECB5: bispecific SEQ ID NO: 54: P53A1R5-17v2, (GGGGS)4, P114AR7P94-A3 (protein)
chain: MLPAPKNLVVSEVTEDSARLSWADPHGFYDSFLIQYQESEKVGEAIVLTVPGSERSYDLTGLKPGTEYTVSIYGVHNVYKDTNMRGLPLSAIFTTGGGGSGGGGSGGGGSGGGGSMLPAPKNLVVSRVTEDSARLSWTAPDAAFDSFWIRYFEFLGSGEAIVLTVPGSERSYDLTGLKPGTEYVVNIMGVKGGKISPPLSAIFTT
modifications: bispecific EGFR/cMet binding molecule
B2: the “inhibition of phosphorylation of EGFR, bispecific versus monospecific” value in the test with EGFR [4] and with EGFR [5] was “comparable” in each case. Also, the “decrease of IC50 for inhibition of EGFR phosphorylation compared to monospecific EGFR-binding FN3 domain” value with EGFR [6] was found to be 30 fold.
